± gives the uncertainty stated by the source.
Assay: protein stability index of a GFP-peptide fusion (yeast GPS) (PSI 1-4); higher = more stable; sorted into four equal gates, so the index is relative within each strain
Summary of the method: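 Peptides tiling yeast proteins in 17-residue segments were fused downstream of GFP, with Cherry expressed from the same plasmid. As a pooled library in yeast, mid-log cultures grown in leucine-free medium were sorted into four equal gates by GFP/Cherry fluorescence ratio. Gate plasmids were PCR-amplified and Illumina-sequenced, and barcodes linked reads to strains. Each peptide received a protein stability index equal to the sum of each gate's read frequency times its gate number.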

Sequence | protein stability index (doa10∆) | protein stability index (pdr5∆) | protein stability index (san1∆) | protein stability index (ubr1∆)
NENDSQAIITERLVEFS [YIL149C/MLP2] | 3.2 ± 0.095 | 3.15 ± 0.085 | 2.83 ± 0.087 | 2.87 ± 0.051
TVKFKHMDYDGNIVKEF [YMR129W/POM152] | 2.89 ± 0.079 | 2.39 ± 0.043 | 2.67 ± 0.094 | 2.99 ± 0.05
TYSTPKRPYESSRLDAE [RPS9A] | 2.97 ± 0.073 | 3.02 ± 0.062 | 2.93 ± 0.082 | 2.87 ± 0.064
VGKYDKAIELLEKALQG [SRP72] | – | 1.66 ± 0.17 | – | 1.18 ± 0.22
GEKNSDDYSNEDNEMLE [YJR042W/NUP85] | – | – | 2.06 ± 0.29 | 1.89 ± 0.14
KKFLRVRIFTKIESEDD [SRB4] | 1.46 ± 0.092 | 1.26 ± 0.089 | 1.16 ± 0.13 | 1.11 ± 0.083
QCLRFLKETVIPSLANN [POP6] | 1.49 ± 0.065 | 1.63 ± 0.11 | 1.92 ± 0.16 | 2.09 ± 0.051
CYVGLLTAIPILLEPIY [SNU114] | 1.31 ± 0.045 | 1.23 ± 0.035 | 1.28 ± 0.064 | 1.34 ± 0.038
PLHLIFAQPVADIENST [SSN2] | 2.67 ± 0.078 | 2.51 ± 0.097 | 2.72 ± 0.13 | 2.67 ± 0.1
NHVMPLKPVDKLKPMNI [SIN4] | 2.84 ± 0.1 | 2.93 ± 0.083 | 2.83 ± 0.087 | 2.94 ± 0.094
LQSIVNEISRNGTMINE [PCI8] | 2.93 ± 0.12 | 2.64 ± 0.13 | 2.67 ± 0.13 | 2.9 ± 0.12
KQTAAYRTPGSSGVLSS [SSN2] | 2.88 ± 0.063 | 3.04 ± 0.063 | 2.87 ± 0.077 | 2.88 ± 0.045
CSFITQDKMFVSNPIRK [FAS1] | 1.37 ± 0.081 | 1.3 ± 0.073 | 1.25 ± 0.11 | 1.22 ± 0.042
VQDCRYSLASVTLKGAK [POP1] | 2.35 ± 0.041 | 2.68 ± 0.051 | 2.61 ± 0.04 | 2.56 ± 0.049
SKELRAQYGIKALPIRR [RPL26A] | 3.44 ± 0.19 | 3.41 ± 0.17 | 3.49 ± 0.14 | –
SGGGDSEVQRTMLELLN [RPT6] | 3.22 ± 0.18 | 2.42 ± 0.19 | – | 3.42 ± 0.066
GINSKSGKPFIAGFDLI [PUP3] | 3.11 ± 0.089 | 3.29 ± 0.094 | 3.3 ± 0.13 | 3.06 ± 0.081
QTVRLIKDLQRAINKVL [SIR2] | 2.13 ± 0.057 | 2.03 ± 0.061 | 1.22 ± 0.11 | 2 ± 0.039
GSNNAQTSRGLFGNNNT [YGL172W/NUP49] | 3.24 ± 0.087 | 3.25 ± 0.074 | 3.14 ± 0.046 | 3.16 ± 0.1
ESFKGLQPFWFRVNNAS [ECM29] | 2.05 ± 0.13 | 1.92 ± 0.11 | – | 2.09 ± 0.15
TSIRLEGDELENKTKKD [SRB4] | – | 3.78 ± 0.26 | – | –
ENIAQMKPKAEKESDDG [SMC4] | 3.1 ± 0.26 | 3.16 ± 0.23 | – | 3.74 ± 0.2
NSIKNVPPILIILPLDN [SSN2] | 2.01 ± 0.21 | 1.61 ± 0.11 | – | 1.82 ± 0.068
SCHGHFGHLKLALPVFH [RPO31] | 1.44 ± 0.054 | 1.4 ± 0.057 | 1.23 ± 0.1 | 1.18 ± 0.035
SDKDATTDGKNDDEEEE [RPN1] | – | 3.33 ± 0.26 | – | –
NVTSSGDHNKLRSTIAN [YML103C/NUP188] | 2.43 ± 0.051 | 2.48 ± 0.062 | 2.35 ± 0.071 | 2.02 ± 0.033
GIKVLPETCLFVSYFGK [YML103C/NUP188] | 2.7 ± 0.055 | 2.42 ± 0.038 | 2.44 ± 0.074 | 2.68 ± 0.039

Sequence | protein stability index (doa10∆) | protein stability index (pdr5∆) | protein stability index (san1∆) | protein stability index (ubr1∆)
ENNSDSNSNNNGNKDSS [SWI1] | 2.95 ± 0.089 | 3.12 ± 0.076 | 3.05 ± 0.06 | 3.04 ± 0.068
STDKLVQCHGSFATATC [SIR2] | 2.72 ± 0.066 | 2.67 ± 0.048 | 2.48 ± 0.063 | 2.76 ± 0.037
SQSKMMSSQISSLIPHC [MTR3] | 2.35 ± 0.057 | 2.09 ± 0.039 | 2.21 ± 0.048 | 2.31 ± 0.042
RLISQSLLASKSTYRTP [RIP1] | 2.79 ± 0.12 | 3.04 ± 0.21 | 2.82 ± 0.22 | 2.45 ± 0.14
YATKRQEAIQQNRRLAF [PRP8] | 2.43 ± 0.11 | 2.43 ± 0.12 | 2.62 ± 0.25 | 2.61 ± 0.067
GFIDASCIAVMAGLMHF [RRP45] | 1.48 ± 0.041 | 1.55 ± 0.04 | 1.85 ± 0.082 | 1.46 ± 0.031
LSIKNSFIINFISNLPN [NUT1] | 1.92 ± 0.07 | 1.81 ± 0.05 | 1.87 ± 0.1 | 1.79 ± 0.04
MGMDLYKTSKAAQDVWN [FAS1] | 3.08 ± 0.13 | 3.37 ± 0.16 | 3.08 ± 0.13 | 3.43 ± 0.077
FPVSLSQPSKKSFANHT [SIR4] | 2.82 ± 0.051 | 2.87 ± 0.046 | 3.01 ± 0.054 | 3 ± 0.039
WRFHTPQKYVLHPQLHE [SIN4] | 2.17 ± 0.071 | 2.11 ± 0.069 | 1.78 ± 0.13 | 1.97 ± 0.057
VYKIYNHVMPLKPVDKL [SIN4] | 1.84 ± 0.064 | 1.97 ± 0.072 | 1.63 ± 0.11 | 1.62 ± 0.051
LKVLSEHLDCMNFISKE [PCI8] | 2.72 ± 0.09 | 3.14 ± 0.099 | 3.2 ± 0.047 | 3.03 ± 0.061
KLVEIIWNDVVYGEGTS [YJL039C/NUP192] | 3.46 ± 0.11 | 3.26 ± 0.11 | 3.39 ± 0.098 | 3.35 ± 0.058
RQKINGCEANIHSLVKQ [YIL149C/MLP2] | 3.12 ± 0.14 | 3.33 ± 0.13 | 2.98 ± 0.22 | 2.79 ± 0.21
IDVNLNFARQLLFNNDF [RRP40] | 2.93 ± 0.064 | 1.56 ± 0.057 | 1.36 ± 0.13 | 1.82 ± 0.05
VKHSPGAIKPFTPKLIY [ECM29] | 3.16 ± 0.089 | – | 2.87 ± 0.19 | 2.93 ± 0.1
KTIEVTAEINCFMHLLV [RPN3] | – | 1.77 ± 0.26 | 1.78 ± 0.2 | 1.67 ± 0.19
IKELRSKGYPIQFLTIG [FAS1] | 1.87 ± 0.11 | 2.22 ± 0.068 | 1.43 ± 0.096 | 1.68 ± 0.071
VQKSTKTFSYKRPSTFY [RPL20A] | 2.73 ± 0.15 | 3.34 ± 0.084 | 3.06 ± 0.085 | 2.23 ± 0.065
VEECPQYIRTLVSEART [SSN8] | 1.67 ± 0.1 | 1.7 ± 0.1 | 1.6 ± 0.14 | 1.87 ± 0.061
LYVPHSENRFPGWDFET [RPL5] | 2.44 ± 0.12 | 2.89 ± 0.069 | 2.21 ± 0.1 | 2.68 ± 0.13
ENAYDNPLADAEEALEP [PRE4] | 3.1 ± 0.086 | 3 ± 0.082 | 3.1 ± 0.063 | 3.13 ± 0.057
HDEKSDSLNEWIKFDQE [RPN7] | 3.19 ± 0.13 | 3.29 ± 0.22 | 3.27 ± 0.076 | 3.21 ± 0.072
ISLRNNMFELAQQLVGV [SMC4] | 1.24 ± 0.089 | 1.74 ± 0.079 | 1.78 ± 0.093 | 1.87 ± 0.084
NLSSTPMETLLSGLSAD [YML031W/NDC1] | 2.42 ± 0.075 | 2.59 ± 0.071 | 2.53 ± 0.055 | 2.42 ± 0.038
KTITLEVESSDTIDNVK [RPS31] | 2.88 ± 0.1 | 3.08 ± 0.062 | 2.77 ± 0.12 | 2.64 ± 0.086
ATPQEAQFYLGKRIAYV [RPL33B] | 1.64 ± 0.11 | 2.2 ± 0.068 | 1.76 ± 0.076 | 2.43 ± 0.077
